The chains are these.
B1: Syt4 132–425 [human] / ARMS ankyrin repeats 1–11 (R1-11, residues 1–365) [rat] (parent)
chain 1: MSVLISQSVINYVEEENIPALKALLEKCKDVDERNECGQTPLMLAAEQGNVEIVKELLKNGANCNLEDLDNWTALISASKEGHIHIVEELLKSGASLEHRDMGGWTALMWACYKGRTDVVELLLSHGANPSVTGLYSVYPIIWAAGRGHADIVHLLLQNGAKVNCSDKYGTTPLVWAARKGHLECVKHLLAMGADVDQEGANSMTALIVAVKGGYTQSVKEILKRNPNVNLTDKDGNTALMIASKEGHIEIVQDLLDAGTYVNIPDRSGDTVLIGAVRGGHVEIVRALLQKYADIDIRGQDNKTALYWAVEKGNATMVRDILQCNPDTEICTKDGETPLIKATKMRNIEVVELLLDKGAKVSAVD
chain 2: ESVSPESLKSSTSLTSEEKQEKLGTLFFSLEYNFERKAFVVNIKEARGLPAMDEQSMTSDPYIKMTILPEKKHKVKTRVLRKTLDPAFDETFTFYGIPYTQIQELALHFTILSFDRFSRDDIIGEVLIPLSGIELSEGKMLMNREIIKRNVRKSSGRGELLISLCYQSTTNTLTVVVLKARHLPKSDVSGLSDPYVKVNLYHAKKRISKKKTHVKKCTPNAVFNELFVFDIPCEGLEDISVEFLVLDSERGSRNEVIGQLVLGAAAEGTGGEHWKEICDYPRRQIAKWHVLCDG

The source of these data is paper PMC10707181, “Neuronal Scaffold Protein ARMS Interacts with Synaptotagmin-4 C2AB through the Ankyrin Repeat Domain with an Unexpected Mode” (International Journal of Molecular Sciences, 2023).

The variants in the first assay derive from B1. The assay is described as follows: ITC. Conditions: with ARMS ankyrin repeats 1–11 (R1-11, residues 1–365) [rat].
chain 2 ESVSPESLKSSTSLTSEEKQEKLGTLFFSLEYNFERKAFVVNIKEARGLPAMDEQSMTSDPYIKMTILPEKKHKVKTRVLRKTLDPAFDETFTFYGIPYTQIQELALHFTILSFDRFSRDDIIGEVLIPLSGIELSEGKMLMNREIIAANVAKSSGRGELLISLCYQSTTNTLTVVVLKARHLPKSDVSGLSDPYVKVNLYHAKKRISKKKTHVKKCTPNAVFNELFVFDIPCEGLEDISVEFLVLDSERGSRNEVIGQLVLGAAAEGTGGEHWKEICDYPRRQIAKWHVLCDG [chain 2 K148A R149A R152A]: the ratio to parent came to 1.6.

Consider chain 2 ESVSPESLKSSTSLTSEEKQEKLGTLFFSLEYNFERKAFVVNIKEARGLPAMDEASMTSDPYIKMTILPEKKHKVKTRVLRKTLDPAFDETFTFYGIPYTQIQELALHFTILSFDRFSRDDIIGEVLIPLSGIELSEGKMLMNREIIKRNVRKSSGRGELLISLCYQSTTNTLTVVVLKARHLPKSDVSGLSDPYVKVNLYHAKKRISKKKTHVKKCTPNAVFNELFVFDIPCEGLEDISVEFLVLDSERGSRNEVIGQLVLGAAAEGTGGEHWKEICDYPRRQIAKWHVLCDG [chain 2 Q55A], for which the ratio to parent stood at 0.3.

chain 2 ESVSPESLKSSTSLTSEEKQEKLGTLFFSLEYNFERKAFVVNIKEARGLPAMDEQSMTSDPYIKMTILPEKKHKVKTRVLRKTLDPAFDETFTFYGIPYTQIQELALHFTILSFDRFSRDDIIGEVLIPLSGIELSEGKMLMNREIIKRNVAASSGRGELLISLCYQSTTNTLTVVVLKARHLPKSDVSGLSDPYVKVNLYHAKKRISKKKTHVKKCTPNAVFNELFVFDIPCEGLEDISVEFLVLDSERGSRNEVIGQLVLGAAAEGTGGEHWKEICDYPRRQIAKWHVLCDG [chain 2 R152A K153A]: the ratio to parent was 0.3.

For the variant chain 2 ESVSPESLKSSTSLTSEEKQEKLGTLFFSLEYNFERKAFVVNIKEARGLPAMDEQSMTSDPYIKMTILPEKKHKVKTRVLRKTLDPAFDETFTFYGIPYTQIQELALHFTILSFDRFSRDDIIGEVLIPLSGIELSEGKMLMNREIIKRNVAKSSGRGELLISLCYQSTTNTLTVVVLKARHLPKSDVSGLSDPYVKVNLYHAKKRISKKKTHVKKCTPNAVFNELFVFDIPCEGLEDISVEFLVLDSERGSRNEVIGQLVLGAAAEGTGGEHWKEICDYPRRQIAKWHVLCDG [chain 2 R152A], the ratio to parent amounted to 0.3.

In the case of chain 2 ESVSPESLKSSTSLTSEEKQEKLGTLFFSLEYNFERKAFVVNIKEARGLPAMDEQSMTSDPYIKMTILPEKKHKVKTRVLRKTLDPAFDETFTFYGIPYTQIQELALHFTILSFDRFSRDDIIGEVLIPLSGIELSEGKMLMNREIIAANVRKSSGRGELLISLCYQSTTNTLTVVVLKARHLPKSDVSGLSDPYVKVNLYHAKKRISKKKTHVKKCTPNAVFNELFVFDIPCEGLEDISVEFLVLDSERGSRNEVIGQLVLGAAAEGTGGEHWKEICDYPRRQIAKWHVLCDG [chain 2 K148A R149A], the ratio to parent came to 0.8.

As to chain 2 ESVSPESLKSSTSLTSEEKQEKLGTLFFSLEYNFERKAFVVNIKEARGLPAMDEQSMTSDPYIKMTILPEKKHKVKTRVLRKTLDPAFDETFTFYGIPYTQIQELALHFTILSFDRFSRDDIIGEVLIPLSGIELSEGKMLMNREIIKRNVRKSSGAGELLISLCYQSTTNTLTVVVLKARHLPKSDVSGLSDPYVKVNLYHAKKRISKKKTHVKKCTPNAVFNELFVFDIPCEGLEDISVEFLVLDSERGSRNEVIGQLVLGAAAEGTGGEHWKEICDYPRRQIAKWHVLCDG [chain 2 R157A], the ratio to parent came out at 0.8.

Turning to chain 2 ESVSPESLKSSTSLTSEEKQEKLGTLFFSLEYNFERKAFVVNIKEARGLPAMDEQSMTSDPYIKMTILPEKKHKVKTRVLRKTLDPAFDETFTFYGIPYTQIQELALHFTILSFDRFSRDDIIGEVLIPLSGIELSEGKMLMNREIIKRNVRASSGRGELLISLCYQSTTNTLTVVVLKARHLPKSDVSGLSDPYVKVNLYHAKKRISKKKTHVKKCTPNAVFNELFVFDIPCEGLEDISVEFLVLDSERGSRNEVIGQLVLGAAAEGTGGEHWKEICDYPRRQIAKWHVLCDG [chain 2 K153A], the ratio to parent stood at 0.3.

The assay is the same for the next values; noted with them: with Syt4 132–425 [human].
As for chain 1 MSVLISQSVINYVEEENIPALKALLEKCKDVDERNECGQTPLMLAAEQGNVEIVKELLKNGANCNLEDLDNWTALISASKEGHIHIVEELLKSGASLEHRDMGGWTALMWACYKGRTDVVELLLSHGANPSVTGLYSVYPIIWAAGRGHADIVHLLLQNGAKVNCSDKYGTTPLVWAARAGHLECVKHLLAMGADVDQEGANSMTALIVAVKGGYTQSVKEILKRNPNVNLTDKDGNTALMIASKEGHIEIVQDLLDAGTYVNIPDRSGDTVLIGAVRGGHVEIVRALLQKYADIDIRGQDNKTALYWAVEKGNATMVRDILQCNPDTEICTKDGETPLIKATKMRNIEVVELLLDKGAKVSAVD [chain 1 K180A], the ratio to parent was determined as 0.9.
